Reference: patent US20150344570A1 (published 2015)

B1: GpH7-B3 variant S337_18N/GpL16-k0 (antibody, human IgG1, kappa)
heavy: not shown
light: DIVMTQSPLSLPVTPGEPASISCQASESLVHSNRNTYLHWYLQKPGQSPQLLIYKVSNRFSGVPDRFSGSGSGTDFTLKISRVEAEDVGVYYCSQNTHVPPTFGQGTKVEIERTVAAPSVFIFPPSDEQLKSGTASVVCLLNNFYPREAKVQWKVDNALQSGNSQESVTEQDSKDSTYSLSSTLTLSKADYEKHKVYACEVTHQGLSSPVTKSFNRGEC
notes: also called Ho Ab S337_18N
B2: GpH7-B3 variant I332_09D/GpL16-k0 (antibody, human IgG1, kappa)
heavy: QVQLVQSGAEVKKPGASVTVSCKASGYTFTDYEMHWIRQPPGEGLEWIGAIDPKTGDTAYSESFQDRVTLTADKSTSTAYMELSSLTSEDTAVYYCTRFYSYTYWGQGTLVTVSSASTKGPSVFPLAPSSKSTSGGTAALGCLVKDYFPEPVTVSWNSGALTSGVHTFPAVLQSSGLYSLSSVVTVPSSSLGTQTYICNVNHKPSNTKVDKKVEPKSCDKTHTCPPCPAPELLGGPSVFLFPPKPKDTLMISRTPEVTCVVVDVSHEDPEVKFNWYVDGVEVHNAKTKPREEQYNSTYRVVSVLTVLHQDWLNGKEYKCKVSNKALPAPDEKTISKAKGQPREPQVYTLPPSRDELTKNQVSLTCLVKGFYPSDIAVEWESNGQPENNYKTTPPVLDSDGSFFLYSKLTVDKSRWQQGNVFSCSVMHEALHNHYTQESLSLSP
light: B1 light
notes: also called Ho Ab I332_09D
B3: GpH7-B3 variant S337_10E/GpL16-k0 (antibody, human IgG1, kappa)
heavy: not shown
light: B1 light
notes: also called Ho Ab S337_10E
B4: GpH7-B3 variant K326_14T/GpL16-k0 (antibody, human IgG1, kappa)
heavy: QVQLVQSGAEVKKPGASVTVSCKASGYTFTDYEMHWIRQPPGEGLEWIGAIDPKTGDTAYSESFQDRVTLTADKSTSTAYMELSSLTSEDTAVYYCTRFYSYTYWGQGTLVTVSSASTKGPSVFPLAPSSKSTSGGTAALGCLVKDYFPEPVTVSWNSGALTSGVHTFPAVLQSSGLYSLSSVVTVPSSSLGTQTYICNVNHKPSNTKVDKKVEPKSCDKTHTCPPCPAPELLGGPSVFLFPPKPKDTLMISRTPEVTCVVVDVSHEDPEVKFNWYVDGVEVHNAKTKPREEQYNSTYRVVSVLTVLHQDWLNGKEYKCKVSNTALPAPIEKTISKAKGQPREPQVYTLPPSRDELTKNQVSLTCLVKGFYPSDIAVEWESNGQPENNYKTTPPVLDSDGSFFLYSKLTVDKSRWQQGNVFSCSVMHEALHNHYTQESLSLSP
light: B1 light
notes: also called Ho Ab K326_14T
B5: GpH7-B3 variant K334_09D/GpL16-k0 (antibody, human IgG1, kappa)
heavy: not shown
light: B1 light
notes: also called Ho Ab K334_09D
B6: GpH7-B3 variant K326_04F/GpL16-k0 (antibody, human IgG1, kappa)
heavy: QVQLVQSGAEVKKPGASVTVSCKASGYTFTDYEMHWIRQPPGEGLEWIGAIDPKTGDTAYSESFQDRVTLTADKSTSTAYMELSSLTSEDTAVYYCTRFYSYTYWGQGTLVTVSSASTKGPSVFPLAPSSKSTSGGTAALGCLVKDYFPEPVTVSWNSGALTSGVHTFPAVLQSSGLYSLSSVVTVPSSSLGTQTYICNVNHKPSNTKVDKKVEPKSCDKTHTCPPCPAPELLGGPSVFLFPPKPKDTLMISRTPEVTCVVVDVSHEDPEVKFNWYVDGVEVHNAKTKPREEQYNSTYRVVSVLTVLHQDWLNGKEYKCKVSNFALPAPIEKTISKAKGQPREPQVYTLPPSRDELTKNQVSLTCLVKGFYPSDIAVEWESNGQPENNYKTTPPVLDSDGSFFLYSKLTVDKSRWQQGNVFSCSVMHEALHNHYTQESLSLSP
light: B1 light
notes: also called Ho Ab K326_04F
B7: GpH7-B3 variant S337_09D/GpL16-k0 (antibody, human IgG1, kappa)
heavy: not shown
light: B1 light
notes: also called Ho Ab S337_09D
B8: GpH7-B3 variant K334_02A/GpL16-k0 (antibody, human IgG1, kappa)
heavy: not shown
light: B1 light
notes: also called Ho Ab K334_02A
B9: GpH7-B3 variant H268_09D/GpL16-k0 (antibody, human IgG1, kappa)
heavy: not shown
light: B1 light
notes: also called Ho Ab H268_09D
B10: GpH7-B3 variant K326_08L/GpL16-k0 (antibody, human IgG1, kappa)
heavy: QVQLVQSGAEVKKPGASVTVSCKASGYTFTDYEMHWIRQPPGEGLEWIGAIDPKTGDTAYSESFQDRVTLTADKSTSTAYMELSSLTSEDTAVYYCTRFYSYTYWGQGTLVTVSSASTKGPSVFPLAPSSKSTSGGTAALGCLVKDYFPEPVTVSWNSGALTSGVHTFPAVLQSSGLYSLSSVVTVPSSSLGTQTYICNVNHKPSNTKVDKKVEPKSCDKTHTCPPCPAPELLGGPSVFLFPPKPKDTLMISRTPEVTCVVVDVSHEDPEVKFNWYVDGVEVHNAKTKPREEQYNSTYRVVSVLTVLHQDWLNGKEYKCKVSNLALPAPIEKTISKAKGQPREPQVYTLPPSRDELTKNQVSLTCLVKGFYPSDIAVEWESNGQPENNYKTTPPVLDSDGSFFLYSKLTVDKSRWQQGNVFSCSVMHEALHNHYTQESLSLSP
light: B1 light
notes: also called Ho Ab K326_08L
B11: GpH7-B3 variant K334_18N/GpL16-k0 (antibody, human IgG1, kappa)
heavy: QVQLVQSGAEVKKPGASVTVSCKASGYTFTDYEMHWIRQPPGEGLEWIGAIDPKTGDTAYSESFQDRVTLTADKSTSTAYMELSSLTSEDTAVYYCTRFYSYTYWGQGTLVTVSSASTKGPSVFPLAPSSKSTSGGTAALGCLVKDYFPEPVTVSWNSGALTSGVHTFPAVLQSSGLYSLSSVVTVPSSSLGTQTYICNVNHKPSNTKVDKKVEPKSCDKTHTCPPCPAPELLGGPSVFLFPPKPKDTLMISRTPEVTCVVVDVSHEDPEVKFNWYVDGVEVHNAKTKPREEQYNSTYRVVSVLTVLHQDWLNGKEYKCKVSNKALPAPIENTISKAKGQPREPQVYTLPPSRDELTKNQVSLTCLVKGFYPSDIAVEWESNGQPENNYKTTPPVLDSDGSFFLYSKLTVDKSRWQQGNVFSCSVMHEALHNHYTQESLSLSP
light: B1 light
notes: also called Ho Ab K334_18N
B12: GpH7-B3 variant K334_04F/GpL16-k0 (antibody, human IgG1, kappa)
heavy: not shown
light: B1 light
notes: also called Ho Ab K334_04F
B13: GpH7-B3 variant S267_02A/GpL16-k0 (antibody, human IgG1, kappa)
heavy: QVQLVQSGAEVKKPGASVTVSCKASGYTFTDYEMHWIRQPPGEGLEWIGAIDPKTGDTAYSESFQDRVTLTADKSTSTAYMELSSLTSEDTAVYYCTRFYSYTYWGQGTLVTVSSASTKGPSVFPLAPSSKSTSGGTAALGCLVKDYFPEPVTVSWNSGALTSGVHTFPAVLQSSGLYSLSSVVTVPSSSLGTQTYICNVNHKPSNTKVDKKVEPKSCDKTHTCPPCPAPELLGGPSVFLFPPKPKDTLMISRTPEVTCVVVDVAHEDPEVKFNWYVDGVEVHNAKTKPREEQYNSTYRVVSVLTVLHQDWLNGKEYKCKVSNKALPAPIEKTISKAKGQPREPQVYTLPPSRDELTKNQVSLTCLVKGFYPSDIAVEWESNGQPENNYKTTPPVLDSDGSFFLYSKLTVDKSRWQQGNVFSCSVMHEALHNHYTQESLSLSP
light: B1 light
notes: also called Ho Ab S267_02A
B14: GpH7-B3 variant K326_10E/GpL16-k0 (antibody, human IgG1, kappa)
heavy: not shown
light: B1 light
notes: also called Ho Ab K326_10E
B15: GpH7-B3 variant I336_14T/GpL16-k0 (antibody, human IgG1, kappa)
heavy: not shown
light: B1 light
notes: also called Ho Ab I336_14T
B16: GpH7-B3 variant Q295_14T/GpL16-k0 (antibody, human IgG1, kappa)
heavy: not shown
light: B1 light
notes: also called Ho Ab Q295_14T
B17: GpH7-B3 variant I336_02A/GpL16-k0 (antibody, human IgG1, kappa)
heavy: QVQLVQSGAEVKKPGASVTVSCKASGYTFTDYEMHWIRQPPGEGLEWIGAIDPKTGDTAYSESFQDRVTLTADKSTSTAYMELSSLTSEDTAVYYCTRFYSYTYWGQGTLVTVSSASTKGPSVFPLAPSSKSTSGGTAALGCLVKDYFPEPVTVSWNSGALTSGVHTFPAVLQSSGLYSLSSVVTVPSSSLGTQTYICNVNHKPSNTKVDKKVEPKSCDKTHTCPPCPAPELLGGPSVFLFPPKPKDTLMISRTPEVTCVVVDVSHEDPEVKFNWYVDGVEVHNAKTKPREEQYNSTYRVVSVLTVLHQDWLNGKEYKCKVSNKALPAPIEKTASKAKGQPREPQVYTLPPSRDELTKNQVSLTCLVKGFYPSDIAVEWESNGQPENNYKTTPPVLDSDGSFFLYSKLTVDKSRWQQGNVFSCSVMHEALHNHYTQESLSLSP
light: B1 light
notes: also called Ho Ab I336_02A
B18: GpH7-B3 variant K334_03V/GpL16-k0 (antibody, human IgG1, kappa)
heavy: not shown
light: B1 light
notes: also called Ho Ab K334_03V
B19: GpH7-B3 variant I332_13S/GpL16-k0 (antibody, human IgG1, kappa)
heavy: not shown
light: B1 light
notes: also called Ho Ab I332_13S
B20: GpH7-B3 variant K326_09D/GpL16-k0 (antibody, human IgG1, kappa)
heavy: not shown
light: B1 light
notes: also called Ho Ab K326_09D
B21: GpH7-B3 variant I332_02A/GpL16-k0 (antibody, human IgG1, kappa)
heavy: not shown
light: B1 light
notes: also called Ho Ab I332_02A
B22: GpH7-B3 variant H268_10E/GpL16-k0 (antibody, human IgG1, kappa)
heavy: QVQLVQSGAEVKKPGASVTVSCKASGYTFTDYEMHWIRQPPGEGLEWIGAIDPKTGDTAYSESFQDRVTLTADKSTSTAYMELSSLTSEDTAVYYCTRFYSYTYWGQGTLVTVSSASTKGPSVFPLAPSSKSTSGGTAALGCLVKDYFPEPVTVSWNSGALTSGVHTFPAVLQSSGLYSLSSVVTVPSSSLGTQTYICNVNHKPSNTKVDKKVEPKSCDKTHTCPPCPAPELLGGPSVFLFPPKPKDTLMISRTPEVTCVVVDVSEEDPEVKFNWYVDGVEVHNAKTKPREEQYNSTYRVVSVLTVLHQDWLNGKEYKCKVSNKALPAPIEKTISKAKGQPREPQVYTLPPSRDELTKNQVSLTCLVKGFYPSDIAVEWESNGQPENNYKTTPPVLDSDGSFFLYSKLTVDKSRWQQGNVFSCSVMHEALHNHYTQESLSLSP
light: B1 light
notes: also called Ho Ab H268_10E
B23: GpH7-B3 variant I336_18N/GpL16-k0 (antibody, human IgG1, kappa)
heavy: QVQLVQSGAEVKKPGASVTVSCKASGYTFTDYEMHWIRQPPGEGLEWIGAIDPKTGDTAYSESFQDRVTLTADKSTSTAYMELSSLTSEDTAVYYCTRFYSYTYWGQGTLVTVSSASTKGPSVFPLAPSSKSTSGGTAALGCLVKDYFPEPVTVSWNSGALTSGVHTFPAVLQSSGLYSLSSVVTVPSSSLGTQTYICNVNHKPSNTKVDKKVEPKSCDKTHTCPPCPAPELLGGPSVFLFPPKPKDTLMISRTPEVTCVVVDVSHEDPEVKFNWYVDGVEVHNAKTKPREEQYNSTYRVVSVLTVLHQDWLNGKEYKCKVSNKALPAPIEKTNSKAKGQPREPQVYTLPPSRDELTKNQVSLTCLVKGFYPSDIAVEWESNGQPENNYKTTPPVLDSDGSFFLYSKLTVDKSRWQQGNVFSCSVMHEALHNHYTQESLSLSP
light: B1 light
notes: also called Ho Ab I336_18N
B24: GpH7-B3 variant T335_10E/GpL16-k0 (antibody, human IgG1, kappa)
heavy: not shown
light: B1 light
notes: also called Ho Ab T335_10E
B25: GpH7-B3 variant K334_05P/GpL16-k0 (antibody, human IgG1, kappa)
heavy: not shown
light: B1 light
notes: also called Ho Ab K334_05P
B26: GpH7-B3 variant K326_19Q/GpL16-k0 (antibody, human IgG1, kappa)
heavy: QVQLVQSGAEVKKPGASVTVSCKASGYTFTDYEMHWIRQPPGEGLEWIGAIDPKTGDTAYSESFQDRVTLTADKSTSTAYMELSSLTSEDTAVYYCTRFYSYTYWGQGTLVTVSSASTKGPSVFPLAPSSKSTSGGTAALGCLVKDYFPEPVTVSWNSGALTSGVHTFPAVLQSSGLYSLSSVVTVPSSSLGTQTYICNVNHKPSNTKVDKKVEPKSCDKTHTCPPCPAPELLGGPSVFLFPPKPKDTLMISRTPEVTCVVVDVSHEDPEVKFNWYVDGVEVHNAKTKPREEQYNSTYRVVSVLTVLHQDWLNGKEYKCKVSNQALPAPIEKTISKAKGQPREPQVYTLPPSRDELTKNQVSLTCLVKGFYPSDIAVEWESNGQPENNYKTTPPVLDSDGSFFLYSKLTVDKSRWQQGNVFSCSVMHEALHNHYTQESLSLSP
light: B1 light
notes: also called Ho Ab K326_19Q
B27: GpH7-B3 variant K334_07I/GpL16-k0 (antibody, human IgG1, kappa)
heavy: not shown
light: B1 light
notes: also called Ho Ab K334_07I
B28: GpH7-B3 variant E333_16H/GpL16-k0 (antibody, human IgG1, kappa)
heavy: not shown
light: B1 light
notes: also called Ho Ab E333_16H
B29: GpH7-B3 variant I336_10E/GpL16-k0 (antibody, human IgG1, kappa)
heavy: not shown
light: B1 light
notes: also called Ho Ab I336_10E

Molecular target: T1, FcγRIIIa extracellular domain with C-terminal His tag (human, UniProt P08637 17-208)
T1 construct: extracellular domain; also called FcgRIIIa; 3a; not shown: His tag attached to the C terminus
T1 sequence (P08637 17-208): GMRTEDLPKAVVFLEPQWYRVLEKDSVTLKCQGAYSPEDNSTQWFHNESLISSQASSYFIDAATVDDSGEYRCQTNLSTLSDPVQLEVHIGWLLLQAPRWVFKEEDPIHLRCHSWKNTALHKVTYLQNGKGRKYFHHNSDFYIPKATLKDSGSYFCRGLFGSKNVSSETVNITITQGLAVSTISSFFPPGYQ
Assay: SPR Biacore, captured antibody, FcγR analyte, relative binding
Method: Analysis of interaction between objective antibody and the FcγR was carried out using Biacore T100 (GE Healthcare). HBS-EP+ (GE Healthcare) was used as the running buffer, and the measurement temperature was set to 25° C. Chips produced by immobilizing the antigen peptide by the amine coupling method to a Series S Sencor Chip CM5 (GE Healthcare), or alternatively, chips produced by allowing preliminarily biotinylated antigen peptides to interact with and immobilize onto a Series S Sensor Chip SA (certified) (GE Healthcare) were used. Antibodies of interest were captured onto an antigen peptide-immobilized chip, and allowed to interact to each FcγR diluted with running buffer. To regenerate and repeatedly use the chip, the antibodies captured on the chip were washed off by reacting 10 mM glycine-HCl, pH 1.5.

Binder	Ho/Con_3a
B1	102 % of HoCon Ab GpH7-B3/GpL16-k0 (=100)
B2	255 % of HoCon Ab GpH7-B3/GpL16-k0 (=100)
B3	100 % of HoCon Ab GpH7-B3/GpL16-k0 (=100)
B4	147 % of HoCon Ab GpH7-B3/GpL16-k0 (=100)
B5	150 % of HoCon Ab GpH7-B3/GpL16-k0 (=100)
B6	103 % of HoCon Ab GpH7-B3/GpL16-k0 (=100)
B7	106 % of HoCon Ab GpH7-B3/GpL16-k0 (=100)
B8	154 % of HoCon Ab GpH7-B3/GpL16-k0 (=100)
B9	220 % of HoCon Ab GpH7-B3/GpL16-k0 (=100)
B10	114 % of HoCon Ab GpH7-B3/GpL16-k0 (=100)
B11	156 % of HoCon Ab GpH7-B3/GpL16-k0 (=100)
B12	168 % of HoCon Ab GpH7-B3/GpL16-k0 (=100)
B13	145 % of HoCon Ab GpH7-B3/GpL16-k0 (=100)
B14	157 % of HoCon Ab GpH7-B3/GpL16-k0 (=100)
B15	123 % of HoCon Ab GpH7-B3/GpL16-k0 (=100)
B16	108 % of HoCon Ab GpH7-B3/GpL16-k0 (=100)
B17	104 % of HoCon Ab GpH7-B3/GpL16-k0 (=100)
B18	170 % of HoCon Ab GpH7-B3/GpL16-k0 (=100)
B19	112 % of HoCon Ab GpH7-B3/GpL16-k0 (=100)
B20	163 % of HoCon Ab GpH7-B3/GpL16-k0 (=100)
B21	114 % of HoCon Ab GpH7-B3/GpL16-k0 (=100)
B22	206 % of HoCon Ab GpH7-B3/GpL16-k0 (=100)
B23	101 % of HoCon Ab GpH7-B3/GpL16-k0 (=100)
B24	102 % of HoCon Ab GpH7-B3/GpL16-k0 (=100)
B25	165 % of HoCon Ab GpH7-B3/GpL16-k0 (=100)
B26	118 % of HoCon Ab GpH7-B3/GpL16-k0 (=100)
B27	180 % of HoCon Ab GpH7-B3/GpL16-k0 (=100)
B28	111 % of HoCon Ab GpH7-B3/GpL16-k0 (=100)
B29	130 % of HoCon Ab GpH7-B3/GpL16-k0 (=100)
